Assay in all cases: cell-based or functional assay
Assay [1] deals with Envelope protein of control pseudovirus MuLV (MuLV).
Assay [2] deals with HIV-1 92RW020 envelope glycoprotein (Env), on pseudovirus (HIV-1 isolate 92RW020 (clade A)).
For assay [3], the target named is HIV-1 ADA envelope glycoprotein (Env), on pseudovirus (HIV-1 isolate ADA).
In assay [4] the target is HIV-1 Env of pseudovirus AC10 (HIV-1).
For assay [5], the target named is HIV-1 Env of pseudovirus CAAN (HIV-1).
The target in assay [6] is HIV-1 Env of pseudovirus CAP45 (HIV-1).
Assay [7] has as its target HIV-1 Env of pseudovirus DU156 (HIV-1).
In assay [8] the target is HIV-1 Env of pseudovirus DU422 (HIV-1).
The target in assay [9] is HIV-1 Env of pseudovirus Du172 (HIV-1).
For assay [10], the target named is HIV-1 Env of pseudovirus PVO.4 (HIV-1).
Assay [11] deals with HIV-1 Env of pseudovirus REJ04541 (HIV-1).
Assay [12] has as its target HIV-1 Env of pseudovirus THRO.18 (HIV-1).
The target of assay [13] is HIV-1 Env of pseudovirus TR0.11 (HIV-1).
Assay [14] concerns the target HIV-1 Env of pseudovirus ZM214 (HIV-1).
Assay [15] addresses HIV-1 Env of pseudovirus ZM233 (HIV-1).
Assay [16] deals with HIV-1 Env of pseudovirus ZM249 (HIV-1).
For assay [17], the target named is HIV-1 JR-FL Env E168K, on pseudovirus (HIV-1 isolate JR-FL (clade B)).

B1: 1456_A12 (PG16) (TCN-117) (antibody, V domains shown)
VH: HEQLVEAGGGVVQPGGSLRLSCLASGFTFHKYGMHWVRQAPGKGLEWVALISDDGMRKYHSDSMWGRVTISRDNSKNTLYLQFSSLRVEDTAMFFCAREAGGPIWHDDVKYYDFNDGYYNYHYMDVWGKGTKVTVSS
VL: QSALTQPASVSGSPGQTITISCNGTSRDVGGFDSVSWYQQSPGKAPKVMVFDVSHRPSGMSNRFSGSKSGNTASLTISGLHIEDEGDYFCSSLTDRSHRIFGGGTKLTVLG
Take B1: the IC50, pseudovirus neutralization (TZM-bl assay), control virus in assay [1] was above 25 mg/L. Further, the IC50 (ug/ml), pseudovirus neutralization, TZM-bl assay in assay [2] was determined as 0.05 µg/mL; in [3], 0.005 µg/mL; in assay [17], 0.003 µg/mL. The IC50, pseudovirus neutralization (TZM-bl assay) is below 0.01 mg/L in assay [4]; 10.6 mg/L in [5]; below 0.01 mg/L in [6]; below 0.01 mg/L in assay [7]; 0.36 mg/L in assay [8]; below 0.01 mg/L in assay [9]. For the same molecule, the IC50, pseudovirus neutralization (TZM-bl assay) in assay [10] is 10.4 mg/L; in assay [11], below 0.01 mg/L; in assay [12], 2.08 mg/L; in assay [13] it was 3.05 mg/L; in assay [14], above 25 mg/L; in [15], below 0.01 mg/L. Further, in assay [16], the IC50, pseudovirus neutralization (TZM-bl assay) is below 0.01 mg/L.

B2: 1489_I13 (PG16) (TCN-120) (antibody, V domains shown)
VH: QEQLLESGGGVVQPGGSLRLSCLASGFTFHKYGMHWVRQAPGKGLEWVALISDDGMRKYHSNSMWGRVTISRDNSKNTLYLQFSSLKVEDTAMFFCAREAGGPIWHDDVKYYDFNDGYYNYHYMDVWGKGTTVTVSS
VL: QSALTQPASVSGSPGQTITISCNGTSSDVGGFDSVSWYQQSPGKAPKVMVFDVSHRPSGISNRFSGSKSGNTASLTISGLHIEDEGDYFCSSLTDRSHRIFGGGTKVTVLG
The molecule B2 had an IC50, pseudovirus neutralization (TZM-bl assay), control virus in assay [1] above 25 mg/L. The IC50 (ug/ml), pseudovirus neutralization, TZM-bl assay was 0.03 µg/mL in assay [2], 0.008 µg/mL in assay [3] and 0.005 µg/mL in assay [17]. Moreover, the IC50, pseudovirus neutralization (TZM-bl assay) in [4] was below 0.01 mg/L; in assay [5] it was 24.9 mg/L; in [6] it was below 0.01 mg/L; in assay [7], below 0.01 mg/L; in assay [8], 1.87 mg/L; in [9], below 0.01 mg/L. For the same molecule, the IC50, pseudovirus neutralization (TZM-bl assay) in assay [10] is 20.6 mg/L; in assay [11], 0.34 mg/L; in [12], 7.41 mg/L; in assay [13], 10.9 mg/L; in assay [14] it was above 25 mg/L; in [15], below 0.01 mg/L. The molecule further showed an IC50, pseudovirus neutralization (TZM-bl assay) in [16] below 0.01 mg/L.

B3: 1469_M23 (PG16) (TCN-118) (antibody, V domains shown)
VH: QEKLVESGGGVVQPGGSLRLSCLASGFTFHKYGMHWVRQAPGKGLEWVALISDDGMRKYHSDSMWGRVTISRDNSKNTLYLQFSSLKVEDTAMFFCAREAGGPIWHDDVKYYDFNDGYYNYHYMDVWGKGTTVTVSS
VL: QSALTQPASVSGSPGQTITISCNGTRSDVGGFDSVSWYQQSPGRAPKVMVFDVSHRPSGISNRFSGSKSGNTASLTISGLHIEDEGDYFCSSLTDRSHRIFGGGTKLTVLG
The molecule B3 showed an IC50, pseudovirus neutralization (TZM-bl assay), control virus in [1] above 25 mg/L. In addition, the IC50 (ug/ml), pseudovirus neutralization, TZM-bl assay in assay [2] came to 0.05 µg/mL; in assay [3] it was 0.005 µg/mL; in [17], 0.005 µg/mL. For the same molecule, the IC50, pseudovirus neutralization (TZM-bl assay) in assay [4] was below 0.01 mg/L; in assay [5], 17.7 mg/L; in assay [6], below 0.01 mg/L; in assay [7], below 0.01 mg/L; in assay [8], 0.97 mg/L; in assay [9], below 0.01 mg/L. The IC50, pseudovirus neutralization (TZM-bl assay) in assay [10] was 21.2 mg/L; in [11], 0.39 mg/L; in assay [12], 7.01 mg/L; in assay [13], 7.52 mg/L; in [14] it was above 25 mg/L; in assay [15], below 0.01 mg/L. The molecule further returned an IC50, pseudovirus neutralization (TZM-bl assay) in assay [16] below 0.01 mg/L.

These data come from patent publication US20240132578A1.
